Assay results from patent US20090017041A1.

Legend:
[1] = target: oligomer-enriched preparation of the Aβ1-42 peptide (Example 16); test: ELISA, fraction coated at 2.2 µM; antibody dilution 1:32 (start 0.5 µg/ml)
[2] = target: monomer-enriched preparation of the Aβ1-42 peptide (Example 16); test: as above
[3] = target: oligomer-enriched preparation of the Aβ1-42 peptide (Example 16); test: ELISA, fraction coated at 2.2 µM; assay 1; antibody dilution 1:8 (start 0.5 µg/ml)
[4] = target: monomer-enriched preparation of the Aβ1-42 peptide (Example 16); test: as above
[5] = target: oligomer-enriched preparation of the Aβ1-42 peptide (Example 16); test: ELISA, fraction coated at 2.2 µM; assay 1; antibody dilution 1:1 (start 0.5 µg/ml)
[6] = target: monomer-enriched preparation of the Aβ1-42 peptide (Example 16); test: as above
[7] = target: high molecular weight (HMW) proto-fibrillar (PF) oligomer enriched preparation of the Aβ1-42 peptide (Example 15) (human); test: ELISA, fraction coated at 2 µM; antibody 0.0078 µg/ml
Chain of high molecular weight (HMW) proto-fibrillar (PF) oligomer enriched preparation of the Aβ1-42 peptide (Example 15) (human) (peptide, as listed by the source): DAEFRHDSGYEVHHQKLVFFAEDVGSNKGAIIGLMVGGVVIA

[8] = target: low molecular weight (LMW) monomeric preparation of the Aβ1-42 peptide (Example 15) (human); test: as above
Chain of low molecular weight (LMW) monomeric preparation of the Aβ1-42 peptide (Example 15) (human) (peptide, as listed by the source): as above

[9] = target: oligomer-enriched preparation of the Aβ1-42 peptide (Example 16); test: ELISA, fraction coated at 2.2 µM; antibody dilution 1:8 (start 0.5 µg/ml)
[10] = target: oligomer-enriched preparation of the Aβ1-42 peptide (Example 16); test: ELISA, fraction coated at 2.2 µM; assay 2; antibody dilution 1:16 (start 0.5 µg/ml)
[11] = target: monomer-enriched preparation of the Aβ1-42 peptide (Example 16); test: as above
[12] = target: oligomer-enriched preparation of the Aβ1-42 peptide (Example 16); test: ELISA, fraction coated at 2.2 µM; antibody dilution 1:64 (start 0.5 µg/ml)
[13] = target: monomer-enriched preparation of the Aβ1-42 peptide (Example 16); test: as above
[14] = target: oligomer-enriched preparation of the Aβ1-42 peptide (Example 16); test: ELISA, fraction coated at 2.2 µM; assay 2; antibody dilution 1:4 (start 0.5 µg/ml)
[15] = target: monomer-enriched preparation of the Aβ1-42 peptide (Example 16); test: as above
[16] = target: oligomer-enriched preparation of the Aβ1-42 peptide (Example 16); test: ELISA, fraction coated at 2.2 µM; assay 2; antibody dilution 1:32 (start 0.5 µg/ml)
[17] = target: monomer-enriched preparation of the Aβ1-42 peptide (Example 16); test: as above
[18] = target: high molecular weight (HMW) proto-fibrillar (PF) oligomer enriched preparation of the Aβ1-42 peptide (Example 15) (human); test: ELISA, fraction coated at 2 µM; antibody 0.125 µg/ml
[19] = target: low molecular weight (LMW) monomeric preparation of the Aβ1-42 peptide (Example 15) (human); test: as above
[20] = target: oligomer-enriched preparation of the Aβ1-42 peptide (Example 16); test: ELISA, fraction coated at 2.2 µM; assay 2; antibody dilution 1:8 (start 0.5 µg/ml)
[21] = target: oligomer-enriched preparation of the Aβ1-42 peptide (Example 16); test: ELISA, fraction coated at 2.2 µM; assay 1; antibody dilution 1:32 (start 0.5 µg/ml)
[22] = target: monomer-enriched preparation of the Aβ1-42 peptide (Example 16); test: as above
[23] = target: oligomer-enriched preparation of the Aβ1-42 peptide (Example 16); test: ELISA, fraction coated at 2.2 µM; assay 2; antibody dilution 1:1 (start 0.5 µg/ml)
[24] = target: monomer-enriched preparation of the Aβ1-42 peptide (Example 16); test: as above
[25] = target: oligomer-enriched preparation of the Aβ1-42 peptide (Example 16); test: ELISA, fraction coated at 2.2 µM; assay 1; antibody dilution 1:2 (start 0.5 µg/ml)
[26] = target: monomer-enriched preparation of the Aβ1-42 peptide (Example 16); test: as above
[27] = target: oligomer-enriched preparation of the Aβ1-42 peptide (Example 16); test: ELISA, fraction coated at 2.2 µM; assay 3; antibody dilution 1:32 (start 0.5 µg/ml)
[28] = target: monomer-enriched preparation of the Aβ1-42 peptide (Example 16); test: as above
[29] = target: oligomer-enriched preparation of the Aβ1-42 peptide (Example 16); test: ELISA, fraction coated at 2.2 µM; assay 3; antibody dilution 1:8 (start 0.5 µg/ml)
[30] = target: oligomer-enriched preparation of the Aβ1-42 peptide (Example 16); test: ELISA, fraction coated at 2.2 µM; antibody dilution 1:2 (start 0.5 µg/ml)
[31] = target: monomer-enriched preparation of the Aβ1-42 peptide (Example 16); test: as above
[32] = target: high molecular weight (HMW) proto-fibrillar (PF) oligomer enriched preparation of the Aβ1-42 peptide (Example 15) (human); test: ELISA, fraction coated at 2 µM; antibody 0.0313 µg/ml
[33] = target: low molecular weight (LMW) monomeric preparation of the Aβ1-42 peptide (Example 15) (human); test: as above

Chain of monomer-enriched preparation of the Aβ1-42 peptide (Example 16) (peptide, as listed by the source): as above
Chain of oligomer-enriched preparation of the Aβ1-42 peptide (Example 16) (peptide, as listed by the source): as above

O.D. (405 nm), mean of 3 assays [1]: 1.32 O.D. | O.D. (405 nm), mean of 3 assays [2]: 1.36 O.D. | O.D. (405 nm) [3]: 2.73 O.D. | O.D. (405 nm) [4]: 2.67 O.D. | O.D. (405 nm) [5]: 3.36 O.D. | O.D. (405 nm) [6]: 3.67 O.D. | O.D. (405 nm) [7]: 0.116 O.D. | O.D. (405 nm) [8]: 0.133 O.D. | O.D. (405 nm), mean of 3 assays [9]: 2.98 O.D. | O.D. (405 nm) [10]: 1.92 O.D. | O.D. (405 nm) [11]: 1.94 O.D. | O.D. (405 nm), mean of 3 assays [12]: 0.92 O.D. | O.D. (405 nm), mean of 3 assays [13]: 0.94 O.D. | O.D. (405 nm) [14]: 3.37 O.D. | O.D. (405 nm) [15]: 3.29 O.D. | O.D. (405 nm) [16]: 1.3 O.D. | O.D. (405 nm) [17]: 1.34 O.D. | O.D. (405 nm) [18]: 0.863 O.D. | O.D. (405 nm) [19]: 0.999 O.D. | O.D. (405 nm) [20]: 2.99 O.D. | O.D. (405 nm) [21]: 1.27 O.D. | O.D. (405 nm) [22]: 1.18 O.D. | O.D. (405 nm) [23]: 3.67 O.D. | O.D. (405 nm) [24]: 3.77 O.D. | O.D. (405 nm) [25]: 3.39 O.D. | O.D. (405 nm) [26]: 3.3 O.D. | O.D. (405 nm) [27]: 1.4 O.D. | O.D. (405 nm) [28]: 1.54 O.D. | O.D. (405 nm) [29]: 3.23 O.D. | O.D. (405 nm), mean of 3 assays [30]: 3.59 O.D. | O.D. (405 nm), mean of 3 assays [31]: 3.59 O.D. | O.D. (405 nm) [32]: 0.286 O.D. | O.D. (405 nm) [33]: 0.329 O.D.
Substance: 6E10 control antibody
